This note sets out measurements from the Immune Epitope Database (IEDB).

The target of one assay is HLA-A*29:02. The assay is described as follows: IEDB peptide-MHC binding, purified MHC/competitive/fluorescence; filed as Kd, often an IC50 or EC50 that approximates it; ≥ and ≤ were set here for values at or beyond the usual limits of such assays. The conditions noted are these: source organism: Human betaherpesvirus 7.
The target in assay [1] is HLA-A*01:01. Described as above. The following applies: source organism: Human betaherpesvirus 7.
The target in a further assay is HLA-B*08:02. The assay is described as follows: IEDB peptide-MHC binding, purified MHC/direct/fluorescence; filed as Kd, often an IC50 or EC50 that approximates it; ≥ and ≤ were set here for values at or beyond the usual limits of such assays.
The target of assay [2] is HLA-A*02:01. As to the kind of experiment: IEDB peptide-MHC binding, purified MHC/competitive/fluorescence; ≥ and ≤ were set here for values at or beyond the usual limits of such assays.
Assay [3] deals with HLA-A*01:01. The assay is described as above.
A further assay has as its target HLA-A*24:02. The assay is described as above.
Assay [4] addresses HLA-B*15:01. The description is as above.
The target of assay [5] is HLA-B*08:01. As to the kind of experiment: IEDB peptide-MHC binding, purified MHC/direct/fluorescence; filed as Kd, often an IC50 or EC50 that approximates it; ≥ and ≤ were set here for values at or beyond the usual limits of such assays.
The target of another assay is HLA-B*07:02. The description is as above.
A further assay addresses HLA-B*27:05. Described as above.
Another assay concerns the target HLA-A*26:01. The assay is described as above.
For another assay, the target named is HLA-B*58:01. The assay is described as above. The following applies: source organism: Coxiella burnetii.
A further assay deals with HLA-B*40:01. Described as above.
Another assay deals with HLA-A*69:01. Described as above.
The target of another assay is HLA-B*44:02. Described as above.
A further assay concerns the target HLA-A*30:01. The description is as above. The following applies: source organism: Coxiella burnetii.
Assay [6] concerns the target HLA-A*03:01. The description is as above.
A further assay concerns the target HLA-B*35:01. The description is as above.
Assay [7] addresses HLA-A*02:01. The assay is described as above.
A further assay addresses HLA-A*31:01. Described as above.
For assay [8], the target named is HLA-B*15:01. The assay is described as above.
The target in assay [9] is HLA-A*01:01. The assay is described as above.
Assay [10] has as its target HLA-A*11:01. The description is as above.
The target of assay [11] is HLA-B*08:01. The assay is described as follows: IEDB peptide-MHC binding, purified MHC/competitive/fluorescence; filed as Kd, often an IC50 or EC50 that approximates it; ≥ and ≤ were set here for values at or beyond the usual limits of such assays.
The next assay deals with HLA-B*48:01. As to the kind of experiment: IEDB peptide-MHC binding, purified MHC/direct/fluorescence; filed as Kd, often an IC50 or EC50 that approximates it; ≥ and ≤ were set here for values at or beyond the usual limits of such assays. The following applies: source organism: Burkholderia mallei.
In another assay the target is HLA-C*12:03. The description is as above.
A further assay has as its target HLA-B*46:01. The description is as above. The following applies: source organism: Burkholderia mallei.
For a further assay, the target named is HLA-C*05:01. Described as above. The conditions noted are these: source organism: Homo sapiens.
In a further assay the target is HLA-A*24:03. Described as above. The conditions noted are these: source organism: Vibrio vulnificus.
In assay [12] the target is HLA-A*03:01. As to the kind of experiment: IEDB peptide-MHC binding, purified MHC/competitive/fluorescence; ≥ and ≤ were set here for values at or beyond the usual limits of such assays.
For assay [13], the target named is HLA-A*11:01. Described as above.
Setting [14] is: source organism: Zaire ebolavirus.
[15] abbreviates: source organism: Vaccinia virus Copenhagen.
Where [16] appears, read: source organism: Burkholderia mallei ATCC 23344.
[17] abbreviates: source organism: Coxiella burnetii.
The mark [18] stands for this setting: source organism: Vaccinia virus WR.
The mark [19] stands for this setting: source organism: Escherichia coli O157:H7.
The mark [20] stands for this setting: source organism: Vibrio vulnificus.
Setting [21] is: source organism: Vaccinia virus.

As usually defined, the Kd is the concentration at which binding is half-saturated. Low readings indicate a tighter complex, high ones a looser complex. On to LSMFVTNKK, for which the Kd with HLA-A*29:02 amounted to 0.0627 µM; in the assay with HLA-A*01:01 [1], 3 µM.
For the sequence VINWKGKEL, the dissociation constant Kd in the assay with HLA-B*08:02 (source organism: dengue virus type 3) is no less than 20 µM.
Broadly, the IC50 is the point on the concentration scale where inhibition reaches its midpoint. Low values mean greater potency in that assay, high ones weaker potency in that assay. As for YSTTIRYQA, the IC50 in the assay with HLA-A*02:01 [2] (setting [14]) is 42.3 µM; with HLA-A*01:01 [3] (setting [14]), no less than 207 µM.
In the case of LSSQMTSTF, the IC50 was 0.788 µM with HLA-A*24:02 (setting [15]), no less than 155 µM in the assay with HLA-A*02:01 [2] (setting [15]), 4.85 µM with HLA-B*15:01 [4] (setting [15]) and no less than 129 µM with HLA-A*01:01 [3] (setting [15]).
In the assay with HLA-B*08:02 (setting [16]), FLRRRRAAL showed a Kd of 0.071 µM.
For the sequence VPPESVEAA, the Kd with HLA-B*08:01 [5] (setting [17]) is no less than 20 µM; with HLA-B*07:02 (setting [17]), 12.2 µM; with HLA-B*27:05 (setting [17]), no less than 20 µM; with HLA-A*26:01 (setting [17]) it was no less than 20 µM; with HLA-B*58:01, no less than 20 µM; with HLA-B*40:01 (setting [17]), no less than 20 µM. Moreover, the dissociation constant Kd is no less than 20 µM with HLA-A*69:01 (setting [17]); no less than 20 µM with HLA-B*44:02 (setting [17]); no less than 20 µM in the assay with HLA-A*30:01; no less than 20 µM with HLA-A*03:01 [6] (setting [17]); 1.56 µM in the assay with HLA-B*35:01 (setting [17]); no less than 20 µM in the assay with HLA-A*02:01 [7] (setting [17]). Further, the Kd in the assay with HLA-A*31:01 (setting [17]), in the assay with HLA-B*15:01 [8] (setting [17]), with HLA-A*01:01 [9] (setting [17]) and with HLA-A*11:01 [10] (setting [17]) was no less than 20 µM in each case.
LAARKARAA: the Kd with HLA-B*08:01 [11] (source organism: Escherichia coli) is 0.644 µM.
With YMKAPSGAL, the Kd with HLA-B*07:02 (setting [16]) came to 0.009 µM; in the assay with HLA-B*48:01, 0.047 µM; with HLA-C*12:03 (source organism: Burkholderia mallei SAVP1), 0.005 µM; in the assay with HLA-B*46:01 it was 1.95 µM; in the assay with HLA-B*35:01 (setting [16]), 3.13 µM; in the assay with HLA-B*15:01 [8] (source organism: Burkholderia mallei) it was 0.0385 µM.
In the assay with HLA-B*08:01 [11] (source organism: Influenza A virus (A/Wyoming/3/2003-X-147(H3N2))), TLHFKQYEF came in with a Kd of 0.433 µM.
In the case of PIDSHKGYV, the IC50 with HLA-A*02:01 [2] (setting [18]) is no less than 129 µM; with HLA-A*01:01 [3] (setting [18]), 29.4 µM.
As to IAIPAHVRL, the Kd is 4.46 µM with HLA-B*08:01 [5] (setting [19]); 8.52 µM in the assay with HLA-B*07:02 (setting [19]); no less than 20 µM in the assay with HLA-B*27:05 (setting [19]); no less than 20 µM with HLA-A*26:01 (setting [19]); no less than 5 µM with HLA-B*40:01 (setting [19]); 0.227 µM with HLA-A*69:01 (setting [19]). Further, the equilibrium dissociation constant (Kd) with HLA-B*44:02 (setting [19]) is no less than 20 µM; in the assay with HLA-A*03:01 [6] (setting [19]) it was no less than 20 µM; in the assay with HLA-B*35:01 (setting [19]), 0.392 µM; in the assay with HLA-A*02:01 [7] (setting [19]), no less than 20 µM; with HLA-A*31:01 (setting [19]), no less than 20 µM; with HLA-B*15:01 [8] (setting [19]), 1.81 µM. For the same sequence, the Kd with HLA-A*01:01 [9] (setting [19]) and in the assay with HLA-A*11:01 [10] (setting [19]) was no less than 20 µM each time.
For LVMAPRTVL, the Kd is 0.179 µM with HLA-B*07:02 (source organism: Homo sapiens); 2.04 µM with HLA-C*05:01; 3.61 µM in the assay with HLA-A*69:01 (source organism: Homo sapiens); 0.102 µM with HLA-C*12:03 (source organism: Homo sapiens); no less than 39.5 µM in the assay with HLA-A*02:01 [7] (source organism: Homo sapiens); 0.731 µM with HLA-B*15:01 [8] (source organism: Homo sapiens). Besides, the Kd with HLA-A*11:01 [10] (source organism: Homo sapiens) worked out at 10.3 µM.
On to NGYRWQHQI, for which the equilibrium dissociation constant (Kd) was no less than 20 µM in the assay with HLA-B*27:05 (setting [20]); no less than 20 µM with HLA-A*26:01 (setting [20]); no less than 20 µM with HLA-B*40:01 (setting [20]); 0.0174 µM with HLA-A*69:01 (setting [20]); no less than 20 µM with HLA-B*44:02 (setting [20]); no less than 20 µM with HLA-A*03:01 [6] (setting [20]). For the same sequence, the Kd with HLA-A*24:03 was 7.53 µM; in the assay with HLA-B*35:01 (setting [20]), 0.843 µM; with HLA-A*02:01 [7] (setting [20]), 1.35 µM; in the assay with HLA-A*31:01 (setting [20]) it was no less than 20 µM; in the assay with HLA-B*15:01 [8] (setting [20]), no less than 20 µM; in the assay with HLA-A*01:01 [9] (setting [20]) it was no less than 20 µM. The same sequence displayed a Kd with HLA-A*11:01 [10] (setting [20]) of no less than 20 µM.
RVNPGTYVY: the IC50 with HLA-A*03:01 [12] (source organism: Variola virus) is 4.32 µM; with HLA-B*15:01 [4] (source organism: Variola virus) it was 9.02 µM; in the assay with HLA-A*01:01 [3] (source organism: Variola virus) it was 10.3 µM; with HLA-A*11:01 [13] (source organism: Variola virus) it was 0.701 µM.
Turning to AMEKSSKYY, the IC50 was no less than 142 µM in the assay with HLA-A*03:01 [12] (setting [21]); no less than 962 µM with HLA-A*24:02 (setting [21]); no less than 1170 µM with HLA-A*02:01 [2] (setting [21]); 11 µM in the assay with HLA-B*15:01 [4] (setting [21]); 28.5 µM with HLA-A*01:01 [3] (setting [21]); no less than 195 µM with HLA-A*11:01 [13] (setting [21]).
